Measurements as given in article PMC7989959.

Target: alpha-synuclein (UniProt P37840 1-140)
Assay: electrochemical current sensor

GCCTGTGTTGGGGCGGGTGCG (ssDNA, 5'-SH (thiol)) [Abeta aptamer (Tsukakoshi et al)]: no binding.
